Measured values from IntAct's records for PubMed 17170699.

B1: Protein disulfide-isomerase A3 (Homo sapiens), P30101 (parent)
chain: MRLRRLALFPGVALLLAAARLAAASDVLELTDDNFESRISDTGSAGLMLVEFFAPWCGHCKRLAPEYEAAATRLKGIVPLAKVDCTANTNTCNKYGVSGYPTLKIFRDGEEAGAYDGPRTADGIVSHLKKQAGPASVPLRTEEEFKKFISDKDASIVGFFDDSFSEAHSEFLKAASNLRDNYRFAHTNVESLVNEYDDNGEGIILFRPSHLTNKFEDKTVAYTEQKMTSGKIKKFIQENIFGICPHMTEDNKDLIQGKDLLIAYYDVDYEKNAKGSNYWRNRVMMVAKKFLDAGHKLNFAVASRKTFSHELSDFGLESTAGEIPVVAIRTAKGEKFVMQEEFSRDGKALERFLQDYFDGNLKRYLKSEPIPESNDGPVKVVVAENFDEIVNNENKDVLIEFYAPWCGHCKNLEPKYKELGEKLSKDPNIVIAKMDATANDVPSPYEVRGFPTIYFSPANKKLNPKKYEGGRELSDFISYLQREATNPPVIQEEKPKKKKKAQEDL
partner: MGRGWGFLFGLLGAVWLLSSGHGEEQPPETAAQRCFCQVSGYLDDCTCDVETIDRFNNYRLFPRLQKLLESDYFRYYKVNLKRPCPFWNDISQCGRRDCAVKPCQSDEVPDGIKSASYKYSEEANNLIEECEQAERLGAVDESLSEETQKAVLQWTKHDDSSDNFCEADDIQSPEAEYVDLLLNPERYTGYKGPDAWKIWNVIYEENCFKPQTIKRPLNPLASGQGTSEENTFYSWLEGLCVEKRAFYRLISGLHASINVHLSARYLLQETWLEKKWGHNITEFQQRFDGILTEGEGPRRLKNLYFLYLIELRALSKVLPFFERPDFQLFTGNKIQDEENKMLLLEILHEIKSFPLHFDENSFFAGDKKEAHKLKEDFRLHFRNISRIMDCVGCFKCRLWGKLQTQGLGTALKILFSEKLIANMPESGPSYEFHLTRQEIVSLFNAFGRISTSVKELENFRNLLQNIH

Variants of: B1
Settings: with ero1a_human ERO1A

effect of a mutation on the interaction	Variant
decreasing interaction	C409A
